In PMC7733947, “The Key Glycolytic Enzyme Phosphofructokinase Is Involved in Resistance to Antiplasmodial Glycosides” (mBio, 2020) one finds Km data, which are given here for two substances.

The subject of this series is Nc1ncnc2c1ncn2[C@@H]1O[C@H](COP(=O)(O)O)[C@@H](O)[C@H]1O. The series is described as follows: purified protein.

Broadly, the Km is the concentration of substrate that gives half-maximal velocity. In the case of PfHAD1 (Plasmodium falciparum 3D7), the Km turned out to be 4.11 ± 0.88 mM. With PfHAD2 (Plasmodium falciparum 3D7) the figure was 4.09 ± 0.55 mM.
